Assay results: patent US20190117770A1, “USES OF IMMUNOCONJUGATES TARGETING CD138” (Biotest AG, priority 2011, published 2019)
Values joined by “and” are separate entries in the source; they are usually repeats but may differ in a detail not shown here. Equal values may be shown once. “Also recorded” adds a separate entry of the source. Read-outs that look alike come from different tables or passages of the source.

Experiments:
[1] = Plasma level of BT062 (PK ELISA), repeated multiple dose; assay type: in vivo, human
Description: (§1) Theoretical Cmax was Calculated According to the Following Assumed Parameters: […]
The same evaluation was performed during treatment cycle 4.
(§2) The wells of a microtiter plate are first coated with anti-maytansinoid (anti-DM4) antibody overnight at 2-8° C. and after blocking with assay buffer (0.5% BSA/TBS) incubated on the next day with plasma samples. These are diluted beforehand at least 1:100 in assay buffer. […] After incubation, unbound material is removed by washing. […] Unbound secondary antibody is removed by another washing step. After this, TMB substrate solution is pipetted into all the wells. […] The color reaction is ended using a stop solution, which causes the color to change from blue to yellow. The final measurement is carried out with a photometer at a wavelength of 450 nm.
(§3) The relationship between concentration and optical density is evaluated using Magellan V6.6 software.

[2] = tested on: relapsed or relapsed refractory multiple myeloma
Description: (§4) Initially, the response to treatment was evaluated at day 1 of treatment cycles 1-3 by M-protein quantification using immunoelectrophoresis (IEP) and immunofixation electrophoresis (IFE) from serum and 24-hour urine collection. […] A general quantitative immunoglobulin assessment was done together with M-protein quantification.
(§5) Serum samples were used to perform FLC assays to examine multiple myeloma subjects with no detectable M-protein (nonsecretory/oligosecretory myeloma) and to allow for detection of early response to treatment. Therefore serum FLC assays were performed on day 1, 2, 3, and 8 of treatment cycle 1, on day 2, 3, 8 and 15 of cycle 4, as well as on day 1, 8 and 15 of all other treatment cycles. M-protein and FLC were be analyzed at the screening and at the close-out visit. Evaluations at day 1 of cycle 1 served as baseline values.

Lung carcinoma = Lung carcinoma xenograft; assay type: in vivo, NMRI (nude) mice; conditions: both dose groups (4 mg/kg and 23.85 mg/kg once per week)
Description: These tumors display similar characteristics as the patient tumors, since they are passaged in mice at low numbers, to retain original characteristics.
NMRI (nude) mice are implanted with a Lung carcinoma (determined via IHC analysis as CD138 strong positive).
Tumor diameters are measured two times a week.

primary pancreatic tumor = test: Example 9 xenograft (FIG. 38); assay type: in vivo, NMRI (nude) mice; conditions: 4 and 8 mg/kg once weekly; re-growth in treatment free period
Source text: The results are shown in terms of the effect on the mean relative tumor volume.

[3] = Plasma level of BT062 (PK ELISA), repeated single dose; assay type: in vivo, human; conditions: for effective Cmax (cycle 1) mean: 0-2 h post infusion; for effective Cmax (cycle 4) mean: day 64
Description: as §1
The same evaluation was performed during treatment cycle 4. […] The amount of BT062 in the plasma is determined via a PK ELISA method described as follows:
as §2, §3

[4] = tested on: relapsed/refractory multiple myeloma; test: Human trial, repeated multiple dose regimen (days 1, 8, 15)
Source text: This includes, e.g., in alternating 2 and 3 day intervals, in 4 day intervals, in progressive increasing intervals such as on day 1, 3, 6, 10, 15. […] Such a treatment cycle, including a resting period, is also referred to herein as “full” or “complete” treatment cycle. A treatment free period describes the time during which no treatment is given. Thus, in the above example, the treatment free period would start at day 16. At the beginning of the resting period, no immunoconjugate is administered to the patient.
Generally, all toxicities of at least grade 3 are defined as DLT. Further study specific DLT criteria which can be employed are listed below: Nonhematological: • Alopecia, of any grade, is not considered a DLT • Grade 3-4 nausea and vomiting lasting longer than 3 days despite optimal antiemetic medication.^a • Grade 3-4 diarrhea lasting longer than 3 days despite optimal antidiarrheal medication.^a a. Optimal antidiarrheal and antiemetic treatment were determined by each investigator.
These DLTs may occur in a first or a subsequent treatment cycle. […] Preferably DLTs in the first cycle are considered.
as §4, §5

[5] = repeated single doses of 160 mg/m^2 (FIG. 28)

BT062
% of theoretical Cmax, Mean (%) ([1]; 40 mg/m^2 weekly): 33%
Mean conc. missing to theor. Cmax per Cycle ([1]; 40 mg/m^2 weekly, table rows = cycles C1 to C4): 19.5
% of theoretical Cmax, Mean (%) ([1]; 50 mg/m^2 weekly): 33%
Mean conc. missing to theor. Cmax per Cycle ([1]; 50 mg/m^2 weekly, table rows = cycles C1 to C4): 23.3
% of theoretical Cmax, Mean (%) ([1]; 65 mg/m^2 weekly): 60%
% of theoretical Cmax ([1]; 65 mg/m^2 weekly, cycle/day C1 D1 to C3 D15): 43% and 63% and 72% and 52% and 61% and 71% and 73%
Mean conc. missing to theor. Cmax per Cycle ([1]; 65 mg/m^2 weekly, table rows = cycles C1 to C3): 15.3
Plasma level/Mean ([1]; 80 mg/m^2, 2 hr after completion of administration on days 0, 7, 14): 22910 ng/mL
% of theoretical Cmax ([1]; 80 mg/m^2 weekly, cycle/day C1 D1 to C3 D15): 42% and 45% and 50% and 43% and 39% and 53% and 41%
Mean conc. missing to theor. Cmax per Cycle ([1]; 80 mg/m^2 weekly, table rows = cycles C1 to C3): 30.3
% of theoretical Cmax, Mean (%) ([1]; 100 mg/m^2 weekly): 108%
% of theoretical Cmax, Mean (%) ([1]; 120 mg/m^2 weekly): 69%
% of theoretical Cmax ([1]; 120 mg/m^2 weekly, cycle/day C1 D1 to C2 D15): 69% and 74% and 79% and 62% and 67%
actual Cmax as % of theoretical Cmax ([1]; 3×50 mg/m^2 on days 1, 8, 15): < 50%
treatment cycles of 21 days without disease progression ([2]; 20 mg/m^2, one patient): 10 cycles and Diseases progression after Cycle 10 cycles
response (urine M-protein criteria) ([2]; 20 mg/m^2, after 8th treatment): M-Protein criteria for Minor Response reached after 8th
Serum M-Protein ([2]; 40 mg/m^2, after 1st treatment): Serum M-Protein decreased after 1st treatment and stabilized
response (FLC criteria) ([2]; 160 mg/m^2, after 2nd, 3rd and 4th administration (FIG. 26)): partial response; also recorded: FLC criteria for Partial Response were reached very early
FLC levels reduced vs baseline ([2]; 160 mg/m^2, after 2nd, 3rd and 4th treatment): > 50%
FLC levels reduced vs baseline ([2]; 160 mg/m^2, during 1st cycle): ~40%
toxicity in the mucosa ([2]; 200 mg/m^2 dose group): DLTs
patients out of 32 with diminished disease progression (at least a fourth treatment cycle) ([2]; all dose levels): At least 12
MTD ([2]; human, in vivo): 160 mg/m^2
decrease of urine M-protein ([2]; repeated single dosages, e.g. 20, 40, 80 and 120 mg/m^2): more than 50%
MAD ([2]; repeated single dose): 200 mg/m^2
toxicity towards non-cancer cells expressing CD138 ([2]; repeated single dose up to 120 mg/m^2): no dose limiting toxicity
eye toxicity ([2]; repeated single dose, not qualifying for DLT): Serious adverse events
M-protein levels reduced by [2, 5]: 25%
progression free survival [2, 5]: about 22 months
Tolerability ([2]; single dose every three weeks, 200 mg/m^2): DLTs
dose limiting toxicity (DLT) dose ([2]; single dose once in 21 day cycle): 200 mg/m^2
tumor response (Lung carcinoma): Complete remission
tumor response (primary pancreatic tumor): complete remission
percentage of theoretical Cmax (cycle 1) ([3]; 10 mg/m^2): 15%
effective Cmax (cycle 1) mean ([3]; 10 mg/m^2): 1110 ng/mL and 1100 ng/mL
percentage of theoretical Cmax (cycle 1) ([3]; 20 mg/m^2): 20%
percentage of theoretical Cmax (cycle 4) ([3]; 20 mg/m^2): 49%
effective Cmax (cycle 1) mean ([3]; 20 mg/m^2): 2900 ng/mL
effective Cmax (cycle 4) mean ([3]; 20 mg/m^2): 7060 ng/mL
percentage of theoretical Cmax (cycle 1) ([3]; 40 mg/m^2): 16%
percentage of theoretical Cmax (cycle 4) ([3]; 40 mg/m^2): 9%
effective Cmax (cycle 1) mean ([3]; 40 mg/m^2): 4310 ng/mL
effective Cmax (cycle 4) mean ([3]; 40 mg/m^2): 2510 ng/mL
percentage of theoretical Cmax (cycle 1) ([3]; 80 mg/m^2): 34%
percentage of theoretical Cmax (cycle 4) ([3]; 80 mg/m^2): 26%
effective Cmax (cycle 1) mean ([3]; 80 mg/m^2): 18800 ng/mL
effective Cmax (cycle 4) mean ([3]; 80 mg/m^2): 14200 ng/mL
percentage of theoretical Cmax (cycle 1) ([3]; 120 mg/m^2): 26.5%
effective Cmax (cycle 1) mean ([3]; 120 mg/m^2): 21400 ng/mL
percentage of theoretical Cmax (cycle 1) ([3]; 160 mg/m^2): 74.5%
percentage of theoretical Cmax (cycle 4) ([3]; 160 mg/m^2): 71%
effective Cmax (cycle 1) mean ([3]; 160 mg/m^2): 81200 ng/mL
effective Cmax (cycle 4) mean ([3]; 160 mg/m^2): 77400 ng/mL
percentage of theoretical Cmax (cycle 1) ([3]; 200 mg/m^2): 60%
effective Cmax (cycle 1) mean ([3]; 200 mg/m^2): 82000 ng/mL
DLTs ([4]; 40 mg/m^2 weekly, 14 administrations): no DLTs
response ([4]; 80 mg/m^2 weekly, Patient 12): partial response
progression free survival ([4]; 100 mg/m^2 weekly, patient 15 (FIG. 23)): more than 3 months
response ([4]; 120 mg/m^2 weekly, patient 19 (FIG. 24)): unconfirmed minor response
patients displaying DLT ([4]; 140 mg/m^2 weekly): 1 out of 6
patients displaying DLTs ([4]; 160 mg/m^2 weekly): two out of the four and 2 out of 4
response ([4]; 160 mg/m^2 weekly, patient 31): minor response
M-protein decrease ([4]; 160 mg/m^2 weekly, patient 31 (FIG. 25)): more than 25%
disease status ([4]; 3 × 50 mg/m^2, over six cycles (Patient 6)): no disease progression; also recorded: At least stable disease could be achieved
serum FLC level ([4]; 3 × 65 mg/m^2, after a single treatment cycle (FIG. 21)): A strong decrease of the serum FLC level
Tolerability ([4]; 3 × 80 mg/m^2, aggregate 240 mg/m^2 in three weeks): well tolerated
reduction of urine M protein ([4]; 3 × 120 mg/m^2, after 3rd, 7th and 10th cycle): 50% achieved after 3rd, 7th and 10th cycle
patients with progression free survival of at least 168 days ([4]; FIG. 18): four
patients with progression free survival of at least 300 days ([4]; FIG. 18): two
treatment without disease progression ([4]; Patient 8 (FIG. 21)): 168 days
patients (out of 32) with progression free survival of at least 3 months ([4]; all dose levels (FIG. 18)): 14
DLT (palmar-plantar erythrodysaethesia syndrome), patients ([4]; at 420 (3 × 140 mg/m^2), out of six): toxicities (up to now), one
MAD ([4]; days 1, 8, 15): 160 mg/m^2
DLTs ([4]; three 21 day cycles of 3×100 mg/m^2): No DLTs
DLTs ([4]; three 21 day cycles of 3×120 mg/m^2): No DLTs
